Here are results for eleven molecules from patent publication US20140106371A1 (DUBLIN CITY UNIVERSITY, published 2014).

B1: H50E (rPA-ILNm protein) (other)
chain: RGSHHHHHHGSMAWKGEVLANNEAGQVTSIIYNPGDVITIVAAGWASYGPTQKWGPQGDREEPDQGLICHDAFCGALVMKIGNSGTIPVNTGLFRWVAPNNVQGAITLIYNDVPGTYGNNSGSFSVNIGKDQS
B2: H50T (rPA-ILNm protein) (other)
chain: RGSHHHHHHGSMAWKGEVLANNEAGQVTSIIYNPGDVITIVAAGWASYGPTQKWGPQGDRETPDQGLICHDAFCGALVMKIGNSGTIPVNTGLFRWVAPNNVQGAITLIYNDVPGTYGNNSGSFSVNIGKDQS
B3: H50V (rPA-ILNm protein) (other)
chain: RGSHHHHHHGSMAWKGEVLANNEAGQVTSIIYNPGDVITIVAAGWASYGPTQKWGPQGDREVPDQGLICHDAFCGALVMKIGNSGTIPVNTGLFRWVAPNNVQGAITLIYNDVPGTYGNNSGSFSVNIGKDQS
B4: H50Q (rPA-ILNm protein) (other)
chain: RGSHHHHHHGSMAWKGEVLANNEAGQVTSIIYNPGDVITIVAAGWASYGPTQKWGPQGDREQPDQGLICHDAFCGALVMKIGNSGTIPVNTGLFRWVAPNNVQGAITLIYNDVPGTYGNNSGSFSVNIGKDQS
B5: H50L (rPA-ILNm protein) (other)
chain: RGSHHHHHHGSMAWKGEVLANNEAGQVTSIIYNPGDVITIVAAGWASYGPTQKWGPQGDRELPDQGLICHDAFCGALVMKIGNSGTIPVNTGLFRWVAPNNVQGAITLIYNDVPGTYGNNSGSFSVNIGKDQS
B6: H50P (rPA-ILNm protein) (other)
chain: RGSHHHHHHGSMAWKGEVLANNEAGQVTSIIYNPGDVITIVAAGWASYGPTQKWGPQGDREPPDQGLICHDAFCGALVMKIGNSGTIPVNTGLFRWVAPNNVQGAITLIYNDVPGTYGNNSGSFSVNIGKDQS
B7: H50K (rPA-ILNm protein) (other)
chain: RGSHHHHHHGSMAWKGEVLANNEAGQVTSIIYNPGDVITIVAAGWASYGPTQKWGPQGDREKPDQGLICHDAFCGALVMKIGNSGTIPVNTGLFRWVAPNNVQGAITLIYNDVPGTYGNNSGSFSVNIGKDQS
B8: H50A (rPA-ILNm protein) (other)
chain: AWKGEVLANNEAGQVTSIIYNPGDVITIVAAGWASYGPTQKWGPQGDREAPDQGLICHDAFCGALVMKIGNSGTIPVNTGLFRWVAPNNVQGAITLIYNDVPGTYGNNSGSFSVNIGKDQS
notes: not shown: N-terminal RGS-6HIS tag and added vector residues (pQE30)
B9: H50S (rPA-ILNm protein) (other)
chain: AWKGEVLANNEAGQVTSIIYNPGDVITIVAAGWASYGPTQKWGPQGDRESPDQGLICHDAFCGALVMKIGNSGTIPVNTGLFRWVAPNNVQGAITLIYNDVPGTYGNNSGSFSVNIGKDQS
notes: as for B8
B10: H50R (rPA-ILNm protein) (other)
chain: AWKGEVLANNEAGQVTSIIYNPGDVITIVAAGWASYGPTQKWGPQGDRERPDQGLICHDAFCGALVMKIGNSGTIPVNTGLFRWVAPNNVQGAITLIYNDVPGTYGNNSGSFSVNIGKDQS
notes: as for B8
B11: H50F (rPA-ILNm protein) (other)
chain: AWKGEVLANNEAGQVTSIIYNPGDVITIVAAGWASYGPTQKWGPQGDREFPDQGLICHDAFCGALVMKIGNSGTIPVNTGLFRWVAPNNVQGAITLIYNDVPGTYGNNSGSFSVNIGKDQS
notes: as for B8

The target in the test is T1, asialotransferrin (human, UniProt P02787 20-698, N-linked glycans desialylated with neuraminidase (Clostridium perfingens), exposing terminal LacNAc (β1,4-linked galactose); partially desialylated by paragraph 70).
T1 construct: Same polypeptide as transferrin; differs only in glycans; also called AsT
T1 sequence (P02787 20-698 limits assumed): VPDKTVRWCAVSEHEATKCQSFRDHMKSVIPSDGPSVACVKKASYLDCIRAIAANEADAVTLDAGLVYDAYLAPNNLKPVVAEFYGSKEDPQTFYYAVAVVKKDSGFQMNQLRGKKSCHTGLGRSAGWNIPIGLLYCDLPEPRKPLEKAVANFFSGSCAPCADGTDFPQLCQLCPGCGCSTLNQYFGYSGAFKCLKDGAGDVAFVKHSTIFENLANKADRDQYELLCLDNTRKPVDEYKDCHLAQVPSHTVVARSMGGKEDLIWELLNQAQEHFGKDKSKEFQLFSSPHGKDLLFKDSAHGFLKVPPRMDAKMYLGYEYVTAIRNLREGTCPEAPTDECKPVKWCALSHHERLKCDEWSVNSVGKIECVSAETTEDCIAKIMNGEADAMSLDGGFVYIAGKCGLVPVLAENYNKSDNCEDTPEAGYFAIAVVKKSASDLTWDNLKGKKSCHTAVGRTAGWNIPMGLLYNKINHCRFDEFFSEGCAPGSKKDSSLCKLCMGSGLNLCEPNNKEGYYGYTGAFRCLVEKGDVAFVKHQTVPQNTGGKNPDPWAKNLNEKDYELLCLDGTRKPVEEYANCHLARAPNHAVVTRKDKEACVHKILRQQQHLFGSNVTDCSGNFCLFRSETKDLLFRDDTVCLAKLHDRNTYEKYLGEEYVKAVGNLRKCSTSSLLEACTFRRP
The experiment in a line: qualitative ELLA.
For the molecule B1, the binding result is “no binding (tested: 2 µg mL^-1)”.
The entry for B2 is “no binding (tested: 2 µg mL^-1)”; for B3 it is “no binding (tested: 2 µg mL^-1)”.
Take B4: the binding result is on record as “no binding (tested: 2 µg mL^-1)”.
Turning to B5, the binding result was “no binding (tested: 2 µg mL^-1)”.
The value for B6 was “no binding (tested: 2 µg mL^-1)”.
The value for B7 was “no binding (tested: 2 µg mL^-1)”.
In the case of B8, the binding result is on record as “no binding (tested: 2 µg mL^-1)”.
The value for B9 was “no binding (tested: 2 µg mL^-1)”.
The entry for B10 is “no binding (tested: 2 µg mL^-1)”.
As for B11, the binding result is “no binding (tested: 2 µg mL^-1)”.
